Test results: article PMC6340141

Biological target: T1, native KCC2 (neuron-specific K+-Cl- cotransporter) (mouse (endogenous in mouse brain)), Q91V14
T1 chain: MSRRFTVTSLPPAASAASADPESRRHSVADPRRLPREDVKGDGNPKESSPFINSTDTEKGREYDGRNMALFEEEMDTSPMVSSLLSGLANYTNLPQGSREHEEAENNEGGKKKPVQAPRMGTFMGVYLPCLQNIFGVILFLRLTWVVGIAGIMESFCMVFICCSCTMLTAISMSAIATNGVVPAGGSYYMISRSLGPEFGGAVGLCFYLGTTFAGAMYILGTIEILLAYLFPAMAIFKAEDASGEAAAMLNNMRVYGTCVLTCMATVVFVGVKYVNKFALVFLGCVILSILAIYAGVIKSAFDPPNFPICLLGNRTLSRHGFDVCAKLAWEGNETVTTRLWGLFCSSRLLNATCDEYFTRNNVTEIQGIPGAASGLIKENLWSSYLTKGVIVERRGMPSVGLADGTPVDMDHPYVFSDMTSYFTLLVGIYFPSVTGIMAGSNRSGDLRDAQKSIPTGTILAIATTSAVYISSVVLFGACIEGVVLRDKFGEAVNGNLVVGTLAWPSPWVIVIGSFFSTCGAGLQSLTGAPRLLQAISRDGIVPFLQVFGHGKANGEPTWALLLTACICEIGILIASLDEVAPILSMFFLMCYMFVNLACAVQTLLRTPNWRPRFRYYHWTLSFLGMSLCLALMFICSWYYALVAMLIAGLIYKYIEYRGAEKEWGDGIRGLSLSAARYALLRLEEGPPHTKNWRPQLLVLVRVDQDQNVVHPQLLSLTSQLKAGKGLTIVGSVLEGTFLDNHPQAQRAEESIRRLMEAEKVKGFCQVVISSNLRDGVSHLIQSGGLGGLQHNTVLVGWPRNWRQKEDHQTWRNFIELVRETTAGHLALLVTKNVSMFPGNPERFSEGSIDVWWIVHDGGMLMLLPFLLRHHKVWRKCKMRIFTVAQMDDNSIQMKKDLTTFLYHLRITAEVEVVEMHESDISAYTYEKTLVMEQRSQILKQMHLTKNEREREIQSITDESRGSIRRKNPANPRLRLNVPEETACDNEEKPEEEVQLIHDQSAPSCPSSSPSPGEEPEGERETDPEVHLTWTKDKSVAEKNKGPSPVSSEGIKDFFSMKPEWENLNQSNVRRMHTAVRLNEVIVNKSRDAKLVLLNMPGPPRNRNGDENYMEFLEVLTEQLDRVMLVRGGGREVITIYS
Assay: native gel or EMSA
Settings: remark: other sources report otherwise

B1: native KCC2 (neuron-specific K+-Cl- cotransporter), Q91V14 1-1138 (natural protein)
chain: MSRRFTVTSLPPAASAASADPESRRHSVADPRRLPREDVKGDGNPKESSPFINSTDTEKGREYDGRNMALFEEEMDTSPMVSSLLSGLANYTNLPQGSREHEEAENNEGGKKKPVQAPRMGTFMGVYLPCLQNIFGVILFLRLTWVVGIAGIMESFCMVFICCSCTMLTAISMSAIATNGVVPAGGSYYMISRSLGPEFGGAVGLCFYLGTTFAGAMYILGTIEILLAYLFPAMAIFKAEDASGEAAAMLNNMRVYGTCVLTCMATVVFVGVKYVNKFALVFLGCVILSILAIYAGVIKSAFDPPNFPICLLGNRTLSRHGFDVCAKLAWEGNETVTTRLWGLFCSSRLLNATCDEYFTRNNVTEIQGIPGAASGLIKENLWSSYLTKGVIVERRGMPSVGLADGTPVDMDHPYVFSDMTSYFTLLVGIYFPSVTGIMAGSNRSGDLRDAQKSIPTGTILAIATTSAVYISSVVLFGACIEGVVLRDKFGEAVNGNLVVGTLAWPSPWVIVIGSFFSTCGAGLQSLTGAPRLLQAISRDGIVPFLQVFGHGKANGEPTWALLLTACICEIGILIASLDEVAPILSMFFLMCYMFVNLACAVQTLLRTPNWRPRFRYYHWTLSFLGMSLCLALMFICSWYYALVAMLIAGLIYKYIEYRGAEKEWGDGIRGLSLSAARYALLRLEEGPPHTKNWRPQLLVLVRVDQDQNVVHPQLLSLTSQLKAGKGLTIVGSVLEGTFLDNHPQAQRAEESIRRLMEAEKVKGFCQVVISSNLRDGVSHLIQSGGLGGLQHNTVLVGWPRNWRQKEDHQTWRNFIELVRETTAGHLALLVTKNVSMFPGNPERFSEGSIDVWWIVHDGGMLMLLPFLLRHHKVWRKCKMRIFTVAQMDDNSIQMKKDLTTFLYHLRITAEVEVVEMHESDISAYTYEKTLVMEQRSQILKQMHLTKNEREREIQSITDESRGSIRRKNPANPRLRLNVPEETACDNEEKPEEEVQLIHDQSAPSCPSSSPSPGEEPEGERETDPEVHLTWTKDKSVAEKNKGPSPVSSEGIKDFFSMKPEWENLNQSNVRRMHTAVRLNEVIVNKSRDAKLVLLNMPGPPRNRNGDENYMEFLEVLTEQLDRVMLVRGGGREVITIYS
  stoichiometry N: 4
